Laboratory results reported in the Immune Epitope Database (IEDB).
pKd: −log10 of the molar value.

Assays:
[1] = target: HLA-B*45:06; test: IEDB peptide-MHC binding, purified MHC/competitive/fluorescence; filed as Kd, often an IC50 or EC50 that approximates it; ≥ and ≤ were set here for values at or beyond the usual limits of such assays; conditions: source organism: Entamoeba histolytica HM-1:IMSS
[2] = target: HLA-B*83:01; test: as above; conditions: source organism: Entamoeba histolytica HM-1:IMSS
[3] = target: HLA-C*06:02; test: as above; conditions: source organism: Entamoeba histolytica HM-1:IMSS
[4] = target: HLA-A*02:50; test: as above; conditions: source organism: Entamoeba histolytica HM-1:IMSS
[5] = target: HLA-A*03:19; test: as above; conditions: source organism: Entamoeba histolytica HM-1:IMSS
[6] = target: HLA-B*15:42; test: as above; conditions: source organism: Entamoeba histolytica HM-1:IMSS
[7] = target: HLA-A*01:01; test: IEDB peptide-MHC binding, purified MHC/direct/fluorescence; filed as Kd, often an IC50 or EC50 that approximates it; ≥ and ≤ were set here for values at or beyond the usual limits of such assays
[8] = target: HLA-A*02:11; test: as above; conditions: source organism: Entamoeba histolytica HM-1:IMSS
[9] = target: HLA-B*15:01; test: as above; conditions: source organism: Entamoeba histolytica
[10] = target: HLA-B*27:05; test: as above
[11] = target: HLA-B*44:02; test: as above
[12] = target: HLA-A*02:03; test: as above; conditions: source organism: Entamoeba histolytica HM-1:IMSS
[13] = target: HLA-A*03:01; test: as above; conditions: source organism: Entamoeba histolytica
[14] = target: HLA-B*18:01; test: as above
[15] = target: HLA-A*02:19; test: as above; conditions: source organism: Entamoeba histolytica HM-1:IMSS
[16] = target: HLA-A*02:12; test: as above; conditions: source organism: Entamoeba histolytica HM-1:IMSS
[17] = target: HLA-C*08:02; test: as above; conditions: source organism: Entamoeba histolytica HM-1:IMSS
[18] = target: HLA-B*58:01; test: as above
[19] = target: HLA-A*02:06; test: as above; conditions: source organism: Entamoeba histolytica HM-1:IMSS
[20] = target: HLA-C*15:02; test: as above; conditions: source organism: Entamoeba histolytica HM-1:IMSS
[21] = target: HLA-B*07:02; test: as above
[22] = target: HLA-A*02:01; test: as above
[23] = target: HLA-A*69:01; test: as above
[24] = target: HLA-B*40:01; test: as above
[25] = target: HLA-A*24:02; test: as above; conditions: source organism: Entamoeba histolytica
[26] = target: HLA-A*68:02; test: IEDB peptide-MHC binding, purified MHC/competitive/fluorescence; filed as Kd, often an IC50 or EC50 that approximates it; ≥ and ≤ were set here for values at or beyond the usual limits of such assays; conditions: source organism: Orthomarburgvirus marburgense
[27] = target: HLA-A*26:03; test: IEDB peptide-MHC binding, purified MHC/direct/fluorescence; filed as Kd, often an IC50 or EC50 that approximates it; ≥ and ≤ were set here for values at or beyond the usual limits of such assays; conditions: source organism: Orthomarburgvirus marburgense
[28] = target: HLA-B*39:01; test: as above; conditions: source organism: Orthomarburgvirus marburgense
[29] = target: HLA-B*57:01; test: as above; conditions: source organism: Marburg virus - Musoke, Kenya, 1980
[30] = target: HLA-A*11:01; test: as above; conditions: source organism: Marburg virus - Musoke, Kenya, 1980
[31] = target: HLA-B*15:17; test: as above; conditions: source organism: Marburg virus - Musoke, Kenya, 1980
[32] = target: HLA-A*31:01; test: as above; conditions: source organism: Marburg virus - Musoke, Kenya, 1980
[33] = target: HLA-B*48:01; test: as above; conditions: source organism: Marburg virus - Musoke, Kenya, 1980
[34] = target: HLA-B*08:02; test: as above; conditions: source organism: Orthomarburgvirus marburgense
[35] = target: HLA-A*26:02; test: as above; conditions: source organism: Orthomarburgvirus marburgense
[36] = target: HLA-B*08:03; test: as above; conditions: source organism: Orthomarburgvirus marburgense
[37] = target: HLA-B*15:09; test: as above; conditions: source organism: Orthomarburgvirus marburgense
[38] = source organism: Entamoeba histolytica
[39] = source organism: Marburg virus - Musoke, Kenya, 1980

KLMPGSIYV
pKd [1]: ≤ 5.30
pKd [2]: ≤ 5.30
pKd [3]: 5.93
pKd [4]: ≥ 10.00
pKd [5]: 6.96
pKd [6]: ≤ 5.30
pKd [7, 38]: ≤ 4.70
pKd [8]: ≥ 9.00
pKd [9]: 6.90
pKd [10, 38]: ≤ 4.70
pKd [11, 38]: ≤ 4.70
pKd [12]: ≥ 9.00
pKd [13]: 6.86
pKd [14, 38]: ≤ 4.70
pKd [15]: ≥ 9.00
pKd [16]: 8.70
pKd [17]: ≤ 4.70
pKd [18, 38]: ≤ 4.70
pKd [19]: 8.70
pKd [20]: 7.15
pKd [21, 38]: ≤ 4.70
pKd [22, 38]: 8.21
pKd [23, 38]: 6.43
pKd [24, 38]: ≤ 4.70
pKd [25]: ≤ 4.70

SEINNLNLT
pKd [26]: ≤ 4.70
pKd [7, 39]: ≤ 4.70
pKd [27]: ≤ 4.70
pKd [28]: ≤ 4.70
pKd [29]: ≤ 4.70
pKd [10, 39]: ≤ 4.70
pKd [11, 39]: ≤ 4.70
pKd [30]: ≤ 4.70
pKd [14, 39]: 5.09
pKd [18, 39]: ≤ 4.70
pKd [31]: ≤ 4.70
pKd [32]: ≤ 4.70
pKd [21, 39]: ≤ 4.70
pKd [22, 39]: ≤ 4.70
pKd [33]: ≤ 4.70
pKd [23, 39]: ≤ 4.70
pKd [34]: ≤ 4.70
pKd [24, 39]: 5.15
pKd [35]: ≤ 4.70
pKd [36]: ≤ 4.70
pKd [37]: ≤ 4.70
